Laboratory results reported in patent US5833943, “Minimum recognition unit of a pem mucin tandem repeat specific monoclonal antibody” (Cancer Therapeutics Limited, dated 1998).
No end group written: not given here.

Target: mucin molecule associated with epithelial tumours (Homo sapiens (Human), UniProt P15941)
Assay: synthetic CDR peptides of NM-2 VH; method not told at this place

- binding result: binds
Binder: REPPTRTFAYWG (also: I125 label, position not given here) [peptide REPPTRTFAYWG]
